Data: the supplement of paper PMC10724198
± gives the standard deviation of the averaged measurements.

Test system: Saccharomyces cerevisiae
Test: protein stability index of tFT-peptide fusion (C-terminal peptide) (PSI (0-1 scale)); higher = more stable (slower turnover)
Settings: temperature: 30 C
Experimental: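 MPS profiling in S. cerevisiae of the yeast C-terminome library: the last 12 aa of each annotated ORF are fused to the C-terminus of a sfGFP-mCherry timer, after a GGGS linker. Cells are FACS-sorted into 8 mCherry/sfGFP bins and deep-sequenced. PSI runs from 0 (unstable) to 1 (stable); wild type and das1Δ backgrounds, two technical replicates each.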

[1] = genetic background: das1 deletion

Row | Sequence | protein stability index [1] | protein stability index (genetic background: wild type)
1 | ATEITPLLNIAE [VLD1 C-terminal 12 aa] | 0.674 ± 0.018 | 0.773 ± 0.033
2 | ATSLSPNKASAS [YJL026C-A C-terminal 12 aa] | 0.685 ± 0.015 | 0.6601 ± 0.0011
3 | ATVSKIIKLDRK [MYO4 C-terminal 12 aa] | 0.711 ± 0.0089 | 0.691 ± 0.025
4 | AVHSFNTPAVQS [COX1 C-terminal 12 aa] | 0.6863 ± 0.0034 | 0.676 ± 0.019
5 | AWAKKLKSMRRS [TAM41 C-terminal 12 aa] | 0.709 ± 0.013 | 0.634 ± 0.021
6 | AWIADLDHTVQP [CHS6 C-terminal 12 aa] | 0.718 ± 0.017 | 0.708 ± 0.011
7 | AYECAKHFLMKN [MRS4 C-terminal 12 aa] | 0.7061 ± 0.0038 | 0.5284 ± 0.0001
8 | AYETLTGSKWSH [ADE1 C-terminal 12 aa] | 0.704 ± 0.01 | 0.704 ± 0.015
9 | CADCGTILNNFR [DGR2 C-terminal 12 aa] | 0.731 ± 0.017 | 0.748 ± 0.045
10 | CCCFLLELVCDN [YDR210W C-terminal 12 aa] | 0.512 ± 0.013 | 0.523 ± 0.018
11 | CDVKSSIIVGIL [YLR358C C-terminal 12 aa] | 0.638 ± 0.02 | 0.655 ± 0.059
12 | CIEIARHFVLKE [YEL009C-A C-terminal 12 aa] | 0.73 ± 0.014 | 0.708 ± 0.027
13 | CKQNSNCEYLYM [YOR365C C-terminal 12 aa] | 0.682 ± 0.012 | 0.699 ± 0.012
14 | CLRTVLKSDEIK [SFA1 C-terminal 12 aa] | 0.647 ± 0.025 | 0.663 ± 0.021
15 | CLSGIGLFPVSS [YHL030W-A C-terminal 12 aa] | 0.6846 ± 0.0057 | 0.69 ± 0.021
16 | CSTERPKRARCD [YOR342C C-terminal 12 aa] | 0.708 ± 0.0099 | 0.695 ± 0.029
17 | DALDIANRIGYI [RPL25 C-terminal 12 aa] | 0.668 ± 0.027 | 0.683 ± 0.012

Row | Sequence | protein stability index [1] | protein stability index (genetic background: wild type)
18 | DDDDDGPYADDS [GSY2 C-terminal 12 aa] | 0.707 ± 0.0079 | 0.706 ± 0.019
19 | DDDEFDEDEFED [PAH1 C-terminal 12 aa] | 0.695 ± 0.03 | 0.7188 ± 0.0021
20 | DDKPKIPTMLNA [YME1 C-terminal 12 aa] | 0.7003 ± 0.0065 | 0.671 ± 0.046
21 | DDPDENTALLGA [YDR338C C-terminal 12 aa] | 0.7076 ± 0.0037 | 0.711 ± 0.034
22 | DDSSSTDTEERE [SSK2 C-terminal 12 aa] | 0.675 ± 0.028 | 0.683 ± 0.029
23 | DEDEFENQRQQF [YIL055C C-terminal 12 aa] | 0.71 ± 0.0099 | 0.709 ± 0.076
24 | DEEKQLSLSDMI [YOR186W C-terminal 12 aa] | 0.692 ± 0.03 | 0.672 ± 0.019
25 | DEFCSQRSYTRF [MIN7 C-terminal 12 aa] | 0.716 ± 0.042 | 0.701 ± 0.032
26 | DEQGNELSPRNY [MID2 C-terminal 12 aa] | 0.69199 ± 0.00026 | 0.723 ± 0.035
27 | DFFDYDLLFQND [PIP2 C-terminal 12 aa] | 0.767 ± 0.021 | 0.788 ± 0.034
28 | DFSKFKDSRLYD [YND1 C-terminal 12 aa] | 0.688 ± 0.034 | 0.671 ± 0.01
29 | DGGLAGPVTVRD [FMP45 C-terminal 12 aa] | 0.6903 ± 0.005 | 0.713 ± 0.048
30 | DGSADLGGWETM [UBR2 C-terminal 12 aa] | 0.732 ± 0.026 | 0.733 ± 0.048
31 | DIIKSIGDSYSI [NSE3 C-terminal 12 aa] | 0.69 ± 0.03 | 0.734 ± 0.076
32 | DIYEIRGTALDD [DSL1 C-terminal 12 aa] | 0.6986 ± 0.0054 | 0.699 ± 0.052
33 | DKKVNNNIILFL [YAL037C-A C-terminal 12 aa] | 0.692 ± 0.042 | 0.704 ± 0.011
34 | DLEGVLWRSYYA [BLM10 C-terminal 12 aa] | 0.744 ± 0.008 | 0.711 ± 0.0089
